Patent US9266923B2, “Compositions and methods for treatment of thrombosis and for prolonging survival of stored platelets” (priority 2010, dated 2016)

Assays:
mouse platelet GPIbα = target: T1, mouse platelet GPIbα (Mus musculus, UniProt O35930); test: In vivo activity in wild-type mice
T1 construct: endogenous in cells; host or cells: platelets of wild-type mice (in vivo)
T1 sequence (O35930 17-734): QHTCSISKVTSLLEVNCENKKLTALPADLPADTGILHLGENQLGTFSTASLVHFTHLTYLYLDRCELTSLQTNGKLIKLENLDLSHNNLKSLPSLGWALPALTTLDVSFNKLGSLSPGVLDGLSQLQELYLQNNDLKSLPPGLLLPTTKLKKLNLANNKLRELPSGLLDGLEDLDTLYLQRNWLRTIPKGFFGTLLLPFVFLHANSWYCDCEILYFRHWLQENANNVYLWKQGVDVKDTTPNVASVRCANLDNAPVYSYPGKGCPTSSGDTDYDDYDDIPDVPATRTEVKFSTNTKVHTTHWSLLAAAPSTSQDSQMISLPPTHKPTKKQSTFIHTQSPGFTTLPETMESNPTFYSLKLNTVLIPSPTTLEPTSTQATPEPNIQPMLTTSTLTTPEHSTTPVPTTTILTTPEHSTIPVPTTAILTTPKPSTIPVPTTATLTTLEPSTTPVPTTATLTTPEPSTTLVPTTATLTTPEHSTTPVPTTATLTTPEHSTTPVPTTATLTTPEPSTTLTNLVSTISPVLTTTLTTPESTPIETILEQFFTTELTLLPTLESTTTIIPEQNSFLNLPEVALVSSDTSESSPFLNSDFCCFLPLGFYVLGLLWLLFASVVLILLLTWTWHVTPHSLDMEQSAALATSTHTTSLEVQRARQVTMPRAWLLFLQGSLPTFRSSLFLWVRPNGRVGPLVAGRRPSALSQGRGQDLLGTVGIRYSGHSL
T1 sequence (P56400 27-206 partner): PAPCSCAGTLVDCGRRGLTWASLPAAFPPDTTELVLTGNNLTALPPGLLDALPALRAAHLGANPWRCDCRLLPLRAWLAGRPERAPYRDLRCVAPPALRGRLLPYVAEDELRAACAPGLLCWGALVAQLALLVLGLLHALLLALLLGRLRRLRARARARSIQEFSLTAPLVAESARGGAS
T1 sequence (O88186 17-177 partner): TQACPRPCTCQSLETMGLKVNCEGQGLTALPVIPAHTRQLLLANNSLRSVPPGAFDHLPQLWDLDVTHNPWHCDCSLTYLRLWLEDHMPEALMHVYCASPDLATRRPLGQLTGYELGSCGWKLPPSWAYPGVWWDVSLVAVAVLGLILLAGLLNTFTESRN
Excerpt: (§1) CCP-014 extended tail bleeding time, as measured in Ware et al., Id.

human GPIbα = target: T2, human GPIbα (Homo sapiens, UniProt P07359); test: In vivo anti-thrombotic activity, tail bleeding time in transgenic mice expressing human GPIbα; parameters: species or system transgenic mouse
T2 construct: mice expressing human GPIbα; expressed in transfected cells; host or cells: platelets of transgenic mice (Ware et al., PNAS 97:2803-08 (2000))
T2 sequence (P07359 17-652, one chain of several): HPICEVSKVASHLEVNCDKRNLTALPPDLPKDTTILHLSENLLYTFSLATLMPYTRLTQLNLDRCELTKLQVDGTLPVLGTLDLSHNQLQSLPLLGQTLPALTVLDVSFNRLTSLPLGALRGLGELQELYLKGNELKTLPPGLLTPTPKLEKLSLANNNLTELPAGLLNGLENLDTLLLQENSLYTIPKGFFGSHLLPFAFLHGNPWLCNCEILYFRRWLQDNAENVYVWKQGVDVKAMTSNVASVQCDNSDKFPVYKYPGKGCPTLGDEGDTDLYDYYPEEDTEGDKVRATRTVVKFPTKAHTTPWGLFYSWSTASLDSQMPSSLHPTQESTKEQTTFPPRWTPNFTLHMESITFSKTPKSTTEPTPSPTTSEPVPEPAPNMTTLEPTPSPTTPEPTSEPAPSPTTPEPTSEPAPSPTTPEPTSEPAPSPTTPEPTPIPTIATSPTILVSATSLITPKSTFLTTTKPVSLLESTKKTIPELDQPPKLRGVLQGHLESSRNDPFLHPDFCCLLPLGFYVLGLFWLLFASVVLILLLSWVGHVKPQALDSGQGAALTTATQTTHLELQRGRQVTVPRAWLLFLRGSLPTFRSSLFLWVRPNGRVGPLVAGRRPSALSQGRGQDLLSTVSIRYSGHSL
Excerpt: as §1

## Ac-A C T E R M A L H N L C G G-NH2 (SEQ ID NO: 1) or Ac-A C T E R M A L H N L C G G K-NH2 (SEQ ID NO: 2) (Ac-ACTERMALHNLCGGK-NH2; cysteine pairing not given here) [CCP-014]
Mouse platelet GPIbα
  activity in vivo: not active
Human GPIbα; mice expressing human GPIbα, measured as in Ware et al.
  tail bleeding time: extended
Human GPIbα; transgenic mice in which human GPIbα replaces the mouse platelet GPIbα
  activity in vivo: active
